Experimental data: US20250302974A1, “LECTIN-DRUG CONJUGATES” (UNICHEM LABORATORIES LIMITED, priority 2021, published 2025)

B1: Formula 18: Recombinant lectin of SEQ ID NO 5 conjugated with Tesirine, DAR 1.05 (conjugate)
chain: SYKITVRVYQTNPDAFFHPVEKTVWKYANGGTWTITDDQHVLTMGGSGTSGTLRFHADNGESFTATFGVHNYKRWGDIVTNLAADETGMVINQQYYSQKNREEARERQLSNYQVKNAKGRNFQIVYTEAEGNDLHANLIIGC
modifications: Tesirine conjugate
B2: SEQ ID NO: 5: recombinant S. rolfsii lectin variant with T1S, C76G and cysteine added at C terminal end (protein)
chain: B1 chain
modifications: C-terminal cysteine added
notes: recombinant S. rolfsii lectin variant with T1S, C76G and cysteine added at C terminal end
B3: Formula 19: Recombinant lectin of SEQ ID NO 2 (via Formula C) conjugated with Tesirine, DAR 1.32 (conjugate)
chain: TYKITVRVYQTNPDAFFHPVEKTVWKYANGGTWTITDDQHVLTMGGSGTSGTLRFHADNGESFTATFGVHNYKRWCDIVTNLAADETGMVINQQYYSQKNREEARERQLSNYQVKNAKGRNFQIVYTEAEGNDLHANLIIG
modifications: Tesirine conjugate via Formula C linker

Experiments:
[1] = test system: human urinary bladder cancer cell line (T-24); assay: Cytotoxicity assay, cell titer glow luminescence, 72 h; type: cell-based
Procedure: (§1) T-24 Cell line were cultured in McCoy's 5a Medium Modified supplemented with 10% FBS and the PA-1 Cell line was cultured in EMEM Media supplemented with 10% FBS. The assay was performed by plating 5,000 cells/well and incubated at 37° C. overnight. […] Each concentration was added in triplicate and media-only wells used as a control. After incubation for 72 h cell titer glow (Promega) reagent (50 μL) was added to each well and the plates shaken for 5 mins and the luminescence was recorded. Percent viability was determined by dividing luminescence of the treated well by the non-treated well and multiplying by 100. Data was analysed using non-linear regression with a logarithmic scale.
(§2) 5,000 cells/well were plated and incubated at 37° C. overnight. Conjugates/vehicle control dilutions were made in respective media and added to cells. Volume added: 50 uL to each well. Starting treatment concentration was 1 uM for Conjugate of formula 16 and 18, and control SEQ ID NO: 5 alone and 10% for vehicle control (1×PBS with 20% DMA) and then diluted 10-fold down for a total of 11 treatment dilutions. Each concentration was analysed in triplicates. Media-only wells was used as a control to calculate percent viability. Cell titer glow reagent (volume: 50 uL) was added to each well, the plate was shaken for 5 mins and the luminescence was recorded. Drug Treatment Time: 72 hours. Percent viability was calculated by dividing the luminescence signal obtained for each treated well by the untreated well (media-only control) and multiplying by 100.

[2] = test system: ovarian cancer cell line (PA-1); assay: as above; type: cell-based; details: for activity against PA-1 cell lines (in words): IC50 values in nanomoles
Procedure: as §1, §2

Molecule	IC50 ([1]; 72 h) [nM]	activity against T-24 cell lines (in words) ([1]; IC50 values in nanomoles)	IC50 ([2]; 72 h) [nM]	activity against PA-1 cell lines (in words) [2]	cytotoxic effects below 10 μM concentration ([1]; below 10 μM)	IC50 values, PA-1 Cell line ([2]; 72 h) [mg/L]	cytotoxic effects below 10 μM concentration ([2]; below 10 μM)	IC50 ([2]; 72 h, listed as formula 19) [nM]
B1	19.9	potent activity	1.04	potent activity				
B2					does not exhibit major cytotoxic effects	16	does not exhibit major cytotoxic effects	
B3			5.22	potent activity				5.22
